Measurements: paper PMC8996237

What was measured:
[1] = biological target: hCMP-mRBD from a stable CHO suspension cell line (human | HIV-1 JR-FL | SARS-CoV-2) (UniProt P0DTC2); assay: SDS-PAGE
[2] = biological target: hCMP-mRBD from a stable HEK293 suspension cell line (human | HIV-1 JR-FL | SARS-CoV-2) (UniProt P0DTC2); assay: SDS-PAGE

Row | Substance | stoichiometry N [1] | stoichiometry N [2]
1 | hCMP-mRBD from a stable CHO suspension cell line (from UniProt P0DTC2 332-532) | 3 | –
2 | hCMP-mRBD from a stable HEK293 suspension cell line (from UniProt P0DTC2 332-532) | – | 3
